From article PMC8556327
Several values for one entry are separate records, joined by “and”; a condition that tells them apart may be missing. Identical values can stand only once.

What was measured:
[1] = molecular target: C-phycocyanin (αβ) monomer from Thermoleptolyngbya sp. O-77 (TlCPC) (Thermoleptolyngbya sp. O-77); test: crystal structure; TlCPC-6 crystals (rhombus or rod), sitting-drop vapor diffusion at 20 °C; reservoir 8% Tacsimate (pH 5.0), 20% polyethylene glycol 3,350; 1.65 Å
[2] = molecular target: C-phycocyanin (αβ) monomer from Thermoleptolyngbya sp. O-77 (TlCPC) (Thermoleptolyngbya sp. O-77); test: cryo-EM structure; TlCPC 6.7 and 10 mg/mL in potassium phosphate buffer (pH 7.0, 10 mM), flash-frozen on holey carbon grid; single particle analysis; hexamers and octamers in the same specimens
[3] = molecular target: C-phycocyanin (αβ) monomer from Thermoleptolyngbya sp. O-77 (TlCPC) (Thermoleptolyngbya sp. O-77); test: crystal structure; TlCPC-8 crystals (cube), sitting-drop vapor diffusion at 20 °C (also obtained at 42 °C); reservoir 1.6 M sodium chloride, 8% polyethylene glycol 6,000, 20% glycerol; space group I432; 2.77 Å
[4] = molecular target: C-phycocyanin (αβ) monomer from Thermoleptolyngbya sp. O-77 (TlCPC) (Thermoleptolyngbya sp. O-77); test: AUC; sedimentation velocity, TlCPC 0.92 mg/mL in potassium phosphate buffer (pH 7.0, 10 mM), 20 °C, 60,000 rpm, absorbance at 277 nm, c(s) distribution (SEDFIT); major species 5.24 S, minor species 3.15 S (monomer), 7.97 S and 11.32 S

## C-phycocyanin (αβ) monomer from Thermoleptolyngbya sp. O-77 (TlCPC) (complex)
[1]
  stoichiometry N: 6
[2]
  stoichiometry N: 6 and 8
[3]
  stoichiometry N: 8
[4]
  stoichiometry N: 2 and 6 and 4
